# In PMC5705260:
# Columns and labels:
# [1] = biological target: PltB-His6 (Salmonella Typhi) (UniProt Q8Z6A3); experiment: crystal structure
# [2] = biological target: ArtB (Salmonella enterica serovar Typhimurium DT104) (UniProt Q404H3); experiment: ion exchange chromatography + SEC
# [3] = biological target: ArtB (Salmonella enterica serovar Typhimurium DT104) (UniProt Q404H3); experiment: co-purification of co-expressed subunits
# [4] = biological target: ArtB-His6 (Salmonella enterica serovar Typhimurium DT104) (UniProt Q404H3); experiment: crystal structure
substance,measurement,setting,value
PltB-His6 (from UniProt Q8Z6A3 1-137) (natural protein),stoichiometry N,[1],5
ArtB (from UniProt Q404H3 1-141) (natural protein),stoichiometry N,[2],5
same,stoichiometry N,[3],5
ArtB-His6 (from UniProt Q404H3 1-141) (natural protein),stoichiometry N,[4],5
